This note sets out measurements from IntAct's records for PubMed 21685908.

The labels stand for the following.
B1: Rab5 GDP/GTP exchange factor (Homo sapiens), Q9UJ41 (parent)
chain: MSLKSERRGIHVDQSDLLCKKGCGYYGNPAWQGFCSKCWREEYHKARQKQIQEDWELAERLQREEEEAFASSQSSQGAQSLTFSKFEEKKTNEKTRKVTTVKKFFSASSRVGSKKEIQEAKAPSPSINRQTSIETDRVSKEFIEFLKTFHKTGQEIYKQTKLFLEGMHYKRDLSIEEQSECAQDFYHNVAERMQTRGKVPPERVEKIMDQIEKYIMTRLYKYVFCPETTDDEKKDLAIQKRIRALRWVTPQMLCVPVNEDIPEVSDMVVKAITDIIEMDSKRVPRDKLACITKCSKHIFNAIKITKNEPASADDFLPTLIYIVLKGNPPRLQSNIQYITRFCNPSRLMTGEDGYYFTNLCCAVAFIEKLDAQSLNLSQEDFDRYMSGQTSPRKQEAESWSPDACLGVKQMYKNLDLLSQLNERQERIMNEAKKLEKDLIDWTDGIAREVQDIVEKYPLEIKPPNQPLAAIDSENVENDKLPPPLQPQVYAG

In this assay the parent is B1. The following applies: with eea1_human EEA1, Q15075.
eea1_human EEA1, Q15075, sequence (Q15075 whole entry): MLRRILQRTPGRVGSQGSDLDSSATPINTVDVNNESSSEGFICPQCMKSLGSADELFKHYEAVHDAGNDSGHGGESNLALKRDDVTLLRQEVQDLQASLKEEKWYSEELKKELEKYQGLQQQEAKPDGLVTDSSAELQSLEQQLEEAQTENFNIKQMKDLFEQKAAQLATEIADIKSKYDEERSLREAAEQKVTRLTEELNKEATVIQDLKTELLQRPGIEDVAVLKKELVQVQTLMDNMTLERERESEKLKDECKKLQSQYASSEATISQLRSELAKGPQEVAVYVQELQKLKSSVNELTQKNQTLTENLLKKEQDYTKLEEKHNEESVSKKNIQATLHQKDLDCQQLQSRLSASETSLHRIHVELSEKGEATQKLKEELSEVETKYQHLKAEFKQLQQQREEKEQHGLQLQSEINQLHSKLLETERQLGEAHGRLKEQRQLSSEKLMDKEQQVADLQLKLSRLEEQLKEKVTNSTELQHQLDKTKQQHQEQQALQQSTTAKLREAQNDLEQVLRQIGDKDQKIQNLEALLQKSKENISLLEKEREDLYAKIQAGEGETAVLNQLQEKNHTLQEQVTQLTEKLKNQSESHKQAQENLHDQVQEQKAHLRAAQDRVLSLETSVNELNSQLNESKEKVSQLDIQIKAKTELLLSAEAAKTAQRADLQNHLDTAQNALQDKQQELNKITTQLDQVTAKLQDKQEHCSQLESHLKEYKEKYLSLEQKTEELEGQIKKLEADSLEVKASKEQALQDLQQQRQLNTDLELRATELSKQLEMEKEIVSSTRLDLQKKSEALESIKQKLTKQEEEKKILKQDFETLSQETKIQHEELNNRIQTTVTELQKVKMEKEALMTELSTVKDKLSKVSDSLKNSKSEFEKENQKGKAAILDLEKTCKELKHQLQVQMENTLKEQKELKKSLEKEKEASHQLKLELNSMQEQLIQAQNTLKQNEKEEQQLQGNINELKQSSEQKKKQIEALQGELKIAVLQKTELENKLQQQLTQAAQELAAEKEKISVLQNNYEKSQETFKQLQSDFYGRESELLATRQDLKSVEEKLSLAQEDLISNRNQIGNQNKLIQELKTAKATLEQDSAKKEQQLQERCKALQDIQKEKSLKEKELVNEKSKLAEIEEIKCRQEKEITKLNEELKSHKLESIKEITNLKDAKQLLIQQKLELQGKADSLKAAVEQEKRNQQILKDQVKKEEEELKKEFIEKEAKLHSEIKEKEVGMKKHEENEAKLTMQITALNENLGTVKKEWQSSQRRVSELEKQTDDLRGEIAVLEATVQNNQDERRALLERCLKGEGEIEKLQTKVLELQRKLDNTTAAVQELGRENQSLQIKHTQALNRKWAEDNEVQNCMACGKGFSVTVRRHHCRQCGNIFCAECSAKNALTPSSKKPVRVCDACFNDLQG
For the variant Q79L, the “effect of a mutation on the interaction” value is recorded as “increasing interaction”.
